Reference: the nanobody polyreactivity screen of Harvey et al. (2022)

Test: yeast display, Sf9 membrane polyspecificity reagent, FACS + sequencing; frameworks hold sequencing errors
Procedure, shortened: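 Synthetic nanobody libraries on Saccharomyces cerevisiae BJ5465 were galactose-induced for 36–48 hours, stained 1 hour at 4 °C with 10% biotinylated, detergent-solubilized Sf9 membrane reagent and enriched on streptavidin microbeads. FACS then separated cells into low and high (top ~1%) gates by anti-HA (expression) and streptavidin (reagent binding) fluorescence. Genes were colony-PCR amplified, MiSeq 2 × 250 sequenced and CDR-length filtered. A clone's polyreactivity label is that of its gate of origin.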

Sequence | polyreactivity (PSR sort gate)
QVQLVESGGGLVQAGGSLRLSCAASGFTFYYNAMGWYRQAPGKERELVAAISSNGGSTYYADSVKGRFTISRDNAKNTVYLQMNSLKPEDTAVYYCAAYPKSSRWDFESWGQGTQVTVSS | low polyreactivity
QVQLVESGGGLVQAGGSLRLSCAASGFTFYYNAMGWYRQAPGKERELVAGISGRGGTTYYADSVKGRFTISRDNAKNTVYLQMNSLKPEDTAVYYCAARKVRARSKFEYWGQGTQVTVSS | high polyreactivity
QVQLVESGGGLVQAGGSLRLSCAASGFTFYYYAMGWSRQAPGKERELVAAISSAGGRTYYADSVKGRFTISRDNAKNTVYLQMNSLKPEDTAVYYCAATIKAYPTPLLGDYWGQGTQVTVSS | high polyreactivity
QVQLVESGGGLVQAGGSLRLSCAASGFTFYYYAMGWYRQAPGKERELVAAINWDGRTYYADSVKGRFTISRDNAKNTVYLQMNTLKPEDTAVYYCAAGYYLLTYRYDYWGQGTQVTVSS | low polyreactivity
QVQLVESGGGLVQAGGSLRLSCAASGFTFYYYAMGWYRQAPGKERELVAAISSTGGSTYYADSVKGRFTISRDNAKNTVYLQMNSLKPEDSAVYYCNAAGYRYPGDYDYWGQGTQVTVSS | high polyreactivity
QVQLVESGGGLVQAGGSLRLSCAASGFTFYYYAMGWYRQAPGKERELVAAISTRDGNTYYADSVKGRFTISRDNAKNTVYLQMNSLKPEDTAVYYCAADYFRYYPYDYWGQGTQVTVSS | low polyreactivity
QVQLVESGGGLVQAGGSLRLSCAASGFTFYYYAMGWYRQAPGKERELVAGITGSGGRTYYADSVKGRFTISRDNAKNTVYLQMNSLKPEDTAVYYCNARSLWYDYWGQGTQVTVSS | high polyreactivity
QVQLVESGGGLVQAGGSLRLSCAASGFTFYYYAMGWYRQAPGKERELVASISWRGGSTYYADSVKGRFTISRDNAKITVYLQMNSLKPEDTAVYYCAAQKRGSPGYRRDYWGQGTQVTVSS | high polyreactivity
QVQLVESGGGLVQAGGSLRLSCAASGFTFYYYAMGWYRQAPGKESDLVAAISWSGGTTYYADSVKGRFTISRDNAKNTVYFQMNSLKPEDPAVYYCAADIRDPGVPMDYWGQGTQVTVSS | low polyreactivity
QVQLVESGGGLVQAGGSLRLSCAASGFTFYYYTMGWYRQAPGKERELVAAITWRGGSTNYADSVKGRFTISRDNAKNTVYLQMNSLKPEDTAVYYCAAVTYWFWPGMDYWGQGTQVTVSS | low polyreactivity
QVQLVESGGGLVQAGGSLRLSCAASGFTIDGYAMGGYRQAPGKERELVAAISGGGSTYYADSVKGRFTISRDNAKNTVYLQMNSLKPEDTAVYYCAAARITRGRRYDYWGQGTQVTVSS | high polyreactivity
QVQLVESGGGLVQAGGSLRLSCAASGFTIDNYAMGWYRHSPGKEMEVVAAINWSGDRMYYADSVKGRFTFSRDNAKNTVYLQMNSLKPEDTAVYYCAAPASRSQGPFPGYDYWGQGTQVTVSS | high polyreactivity
QVQLVESGGGLVQAGGSLRLSCAASGFTIDSNVMGWYRQAPGKDRELVAAITGDDTTYYADSVKGRFTISRDNAKNTVYLQMNSLKPEDTAVYYCAADETESLEYTAYDMYYWGQGTQVTVSS | low polyreactivity
QVQLVESGGGLVQAGGSLRLSCAASGFTIESNAMGWYRQAPGKERELVAAISASGDSTYYADSVKGRFTISRDNAKNTVYLQMNSLKPEDTAVYYCAADRYYGGWRFDHWGQGTQVTVSS | low polyreactivity
QVQLVESGGGLVQAGGSLRLSCAASGFTIIYNAMGWYSQAPGKERELVAAISSGGSTYYADSVKGRFTISRDNAKNTVYFQMNSLKPVDTAVYYCNADVGFFNSGYEDSDYWGQGTQVTVSS | low polyreactivity
QVQLVESGGGLVQAGGSLRLSCAASGFTINGNAMGWYRQAPGKERELVAAITWRGGSTYYADSVKGRFTISRDNAKNTVYLQMNSLKPEDTAVYYCNVEGWYDYDYWGQGTQVTVSS | high polyreactivity

Sequence | polyreactivity (PSR sort gate)
QVQLVESGGGLVQAGGSLRLSCAASGFTININDMRGYRQAPGIDTDLVAALSWNVGNRYYADSVKGRFTISRDNAKNTVYLQMKSLKPEDTAVYYCAADRYIRWVEFDYWGQGTQVTVSS | low polyreactivity
QVQLVESGGGLVQAGGSLRLSCAASGFTIRAYVMGSYRQAPGKEREFVADISYRGGGTNYADSVKGRFTISRDNAKNTVYLQMNSLKPEDTAVYYCNARSGSSKSGYYYWGQGTQVTVSS | high polyreactivity
QVQLVESGGGLVQAGGSLRLSCAASGFTIRSYVMGWYRQAPGKEREFVAAISYRGGGTNYADSVKGRFTISRDNAKNTVYLQMNSLKPEDTAVYYCNALVYDQYGYYHYYLRNGGYYWGQGTQVTVSS | high polyreactivity
QVQLVESGGGLVQAGGSLRLSCAASGFTIRYYALGWYRQAPGKERELVAAISRGGSTTYADSVKGRFTISRDNAKNTVYLQMNSLKPEDTAVDYCAVYSKWSVTYDYWGQGTQVTVSS | high polyreactivity
QVQLVESGGGLVQAGGSLRLSCAASGFTISQYAMGWYRQAPGKERELVAVISINGGSTYYADSVKGRFTISRDNAKNTVYLEKNSLKPEDTAVYYCAADDTDSEDYGYDYWGQGTQVTVSS | low polyreactivity
QVQLVESGGGLVQAGGSLRLSCAASGFTITKYAMGWYRQAPGKERALVAAISRSAGSTYYADSVKGRFTISRDNAKHTVYLQMNSLKPEDTAVYYCNAYPKGRYAAAFPGMDYWGQGTQVTVSS | high polyreactivity
QVQLVESGGGLVQAGGSLRLSCAASGFTIVYYAMGWYRQAPGKERELVAAISATGGRTYYADSVKGRFTISRDNAKNTVYLQMNSLKPEDTAVYYCAVGLSGASSGMGYWGQGTQVTVSS | high polyreactivity
QVQLVESGGGLVQAGGSLRLSCAASGFTIWRYAMGWYRQAPGKERELVAAISRGGSTNYADSVKGRFTISRDNAKNTVYLQMNSLKPEDTAVYYCAASVQYRRLKKFYYWGQGTQVTVSS | high polyreactivity
QVQLVESGGGLVQAGGSLRLSCAASGFTIYHNAMGWYRQAPGKERELVAAISSSGDSTYYADSVKGRFTISRDNAKNTVYLQMNSLKPEDTAVYYCNDYFYYLSLYYYYWFNYDYWGQGTQVTVSS | low polyreactivity
QVQLVESGGGLVQAGGSLRLSCAASGFTIYKYAMGWYRQPPGKERELVAAITGRGGSTNYADSVKGRFTISRDTAQNTVYLQMNILKPEDTAFYYCAARTPSYEMDYWGQGTQVTVSS | high polyreactivity
QVQLVESGGGLVQAGGSLRLSCAASGFTIYLYTMGWYRQAPGKERELVATISWSGGSTYYADSVKGRFTISRDNAKNNVYLHMNSLKPEDTAVYYCAKAYNGRYTWRYDYWGQGTQVTVSS | high polyreactivity
QVQLVESGGGLVQAGGSLRLSCAASGFTIYRYAMGWYRQAPGKERELVAAITGGGGSTYYADSVKGRFTISRDNAKNTVYLQMNSLKPEVTAVYYCAVDVYHKGQYRWSYGYWGQGTQVTVSS | low polyreactivity
QVQLVESGGGLVQAGGSLRLSCAASGFTLAGYAMGWYRQAPGKERELVSAITTSGGSTFYADSVKGRFTISRDNAKNTDYLKMNSLKPEDTAVYYCAAAIRTRTSYYRFDYWGQGTQVTVSS | high polyreactivity
QVQLVESGGGLVQAGGSLRLSCAASGFTLANYAMGWYRQAPGKERELVAAIDYSGGGTYYADSVKGRFTISRDNAKNTVYLQMNSLKPEDTAVYYCAARRWSYYSAKYDYWGQGTQVTVSS | low polyreactivity
QVQLVESGGGLVQAGGSLRLSCAASGFTLARYAMGWYRPAPGKERELVAALTQSGVSTYYADSVKGRFTISRDNAKNTVYLQMNSLKPEDTAVYYCNALLRRTDYRYTWGYGYWGQGTQVTVSS | high polyreactivity
